# In the supplement of paper PMC10065799, “High-throughput profiling of sequence recognition by tyrosine kinases and SH2 domains using bacterial peptide display” (eLife, 2023):
# Biological target: Hck (UniProt P08631)
# Assay: phosphorylation enrichment, bacterial display (enrichment ratio); higher = better substrate or ligand; peptides without Tyr show the background
# 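Also: 11-residue human phosphosite peptides and single-mutation variants displayed on the E. coli surface, counted by deep sequencing, each peptide's frequency after selection divided by its frequency in the unselected input library; frequency after pTyr selection over input frequency; kinase dosed for 20-30% of maximal phosphorylation in three min.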
# Sequence of Hck (P08631 whole entry, looked up): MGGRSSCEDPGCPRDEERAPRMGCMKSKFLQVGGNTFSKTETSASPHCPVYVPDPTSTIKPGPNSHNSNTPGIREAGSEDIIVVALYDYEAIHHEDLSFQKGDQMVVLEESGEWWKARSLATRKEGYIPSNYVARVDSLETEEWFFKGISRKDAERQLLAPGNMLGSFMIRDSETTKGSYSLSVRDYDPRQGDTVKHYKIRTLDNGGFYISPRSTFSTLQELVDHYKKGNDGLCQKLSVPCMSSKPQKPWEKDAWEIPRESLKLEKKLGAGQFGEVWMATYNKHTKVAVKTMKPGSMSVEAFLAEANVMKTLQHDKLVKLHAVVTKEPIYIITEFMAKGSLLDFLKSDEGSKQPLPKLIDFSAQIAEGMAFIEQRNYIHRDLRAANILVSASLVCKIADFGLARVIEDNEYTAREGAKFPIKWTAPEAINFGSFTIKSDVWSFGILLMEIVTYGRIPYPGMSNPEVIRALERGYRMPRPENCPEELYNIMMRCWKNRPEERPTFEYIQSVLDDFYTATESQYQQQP
row,Sequence,phosphorylation enrichment
1,GITVAYTIPKK [UBA5_Y372],0.317
2,PIDLFYLMDLS [ITGB2_Y131_YF],0.771
3,GKAFIYASHIV [ZNF573_Y229],0.604
4,KRYRIYHLATS [BRCA2_Y3009],0.432
5,ICTVDYLLRLQ [RYR1_Y3921],0.542
6,VGSIEYLKREW [KCNMA1_Y885],0.511
7,EFKKKYSDADI [CKAP5_Y1860_YF],0.408
8,GVLKEYVVKVL [CPS1_Y529_G530V],0.386
9,ELPEKYSQNIY [PKP2_Y626],0.905
10,RSRQIYDAYIM [GRK3_Y109],10.4
11,KAIMIYVSSFY [ACTN4_Y260_T259I],0.416
12,DLDTEYGSGFP [RNASEH2A_Y206_D205E_YF],0.654
13,GGFTCCCDGKK [PROS1_Y266_Y266C_YF],0.504
14,ISGGGYRARPA [FGB_Y71],0.404
15,RIILLYIFLKN [STXBP1_Y411],0.42
16,PGRRFYVVACD [RNASE3_Y134],0.733
17,KAIDMYLMGCF [GABRB2_Y308],0.535

row,Sequence,phosphorylation enrichment
1,RIGRKCKKVRF [F8_Y442_Y442C],0.52
2,FDCKWYIPLTD [BCR_Y756_YF],0.581
3,NDLMEYPKQHG [ASS1_Y163_A164P],0.502
4,LNAGAYSKVVQ [PPT1_Y172],0.357
5,ADARMCGVLPW [PLP1_Y207_Y207C],0.488
6,RSRSSYTHGLN [MYCT1_Y116],0.935
7,DAVAVCHGKIS [SH2D1A_Y7_Y7C],0.458
8,PFTRNYYVQAV [CYBA_Y87_R90Q],0.446
9,LFSGDYFRIQG [DDR2_Y740_YF],1.57
10,SVKVYYKKCWS [EPHA7_Y202],0.424
11,GGTPLYRDRQG [AGXT_Y194_M195R],0.398
12,GSCQEYTGAPY [NAXD_Y85_G81S],0.545
13,RHNEIYEIKVD [LGR5_Y387],6.57
14,KLYRVYCDMNT [FGB_Y269_P265L],0.623
15,KASRKYFAMKI [AKT3_Y173_G171R_YF],0.388
16,DPLLTYRFPPK [LMNA_Y481],0.43

# Biological target: Jak2 (UniProt O60674)
# Assay: as above
# Sequence of Jak2 (O60674 whole entry, looked up): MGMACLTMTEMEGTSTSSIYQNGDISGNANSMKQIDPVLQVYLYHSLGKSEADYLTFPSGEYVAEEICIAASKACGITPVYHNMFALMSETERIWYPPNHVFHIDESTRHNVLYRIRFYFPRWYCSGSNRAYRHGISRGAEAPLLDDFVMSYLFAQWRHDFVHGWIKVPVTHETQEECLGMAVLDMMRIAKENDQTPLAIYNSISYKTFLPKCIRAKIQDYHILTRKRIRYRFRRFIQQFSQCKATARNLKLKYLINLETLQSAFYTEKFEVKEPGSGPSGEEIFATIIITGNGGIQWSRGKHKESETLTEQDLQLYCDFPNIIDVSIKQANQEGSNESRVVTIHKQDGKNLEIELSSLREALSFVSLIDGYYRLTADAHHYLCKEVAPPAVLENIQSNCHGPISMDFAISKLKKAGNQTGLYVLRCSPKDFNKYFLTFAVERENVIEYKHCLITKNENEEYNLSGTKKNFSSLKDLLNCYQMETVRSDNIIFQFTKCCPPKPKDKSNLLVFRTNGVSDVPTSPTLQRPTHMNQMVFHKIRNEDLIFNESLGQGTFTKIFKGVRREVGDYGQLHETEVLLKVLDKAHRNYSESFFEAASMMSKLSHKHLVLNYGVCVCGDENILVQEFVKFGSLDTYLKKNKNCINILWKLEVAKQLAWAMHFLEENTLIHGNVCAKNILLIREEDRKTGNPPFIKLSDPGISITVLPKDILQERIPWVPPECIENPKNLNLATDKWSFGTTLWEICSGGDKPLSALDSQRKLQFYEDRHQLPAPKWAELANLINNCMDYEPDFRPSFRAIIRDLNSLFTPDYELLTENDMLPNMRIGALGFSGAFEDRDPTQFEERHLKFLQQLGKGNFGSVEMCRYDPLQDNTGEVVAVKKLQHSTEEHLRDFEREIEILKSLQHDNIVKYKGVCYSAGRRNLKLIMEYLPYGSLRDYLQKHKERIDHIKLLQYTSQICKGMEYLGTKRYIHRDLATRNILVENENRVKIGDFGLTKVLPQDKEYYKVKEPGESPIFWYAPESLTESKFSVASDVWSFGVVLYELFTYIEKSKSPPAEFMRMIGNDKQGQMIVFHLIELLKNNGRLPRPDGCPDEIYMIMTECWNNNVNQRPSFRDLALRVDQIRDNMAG
row,Sequence,phosphorylation enrichment
1,GITVAYTIPKK [UBA5_Y372],0.669
2,PIDLFYLMDLS [ITGB2_Y131_YF],1.22
3,GKAFIYASHIV [ZNF573_Y229],0.869
4,KRYRIYHLATS [BRCA2_Y3009],0.336
5,ICTVDYLLRLQ [RYR1_Y3921],1.12
6,VGSIEYLKREW [KCNMA1_Y885],0.927
7,EFKKKYSDADI [CKAP5_Y1860_YF],0.606
8,GVLKEYVVKVL [CPS1_Y529_G530V],0.814
9,ELPEKYSQNIY [PKP2_Y626],0.891
10,RSRQIYDAYIM [GRK3_Y109],1.15
11,KAIMIYVSSFY [ACTN4_Y260_T259I],1.03
12,DLDTEYGSGFP [RNASEH2A_Y206_D205E_YF],1.39
13,GGFTCCCDGKK [PROS1_Y266_Y266C_YF],1.16
14,ISGGGYRARPA [FGB_Y71],0.603
15,RIILLYIFLKN [STXBP1_Y411],0.994
16,PGRRFYVVACD [RNASE3_Y134],2.05
17,KAIDMYLMGCF [GABRB2_Y308],1.04

row,Sequence,phosphorylation enrichment
1,RIGRKCKKVRF [F8_Y442_Y442C],0.654
2,FDCKWYIPLTD [BCR_Y756_YF],1.44
3,NDLMEYPKQHG [ASS1_Y163_A164P],0.765
4,LNAGAYSKVVQ [PPT1_Y172],1.28
5,ADARMCGVLPW [PLP1_Y207_Y207C],1.1
6,RSRSSYTHGLN [MYCT1_Y116],0.916
7,DAVAVCHGKIS [SH2D1A_Y7_Y7C],0.774
8,PFTRNYYVQAV [CYBA_Y87_R90Q],1.17
9,LFSGDYFRIQG [DDR2_Y740_YF],23.4
10,SVKVYYKKCWS [EPHA7_Y202],1.21
11,GGTPLYRDRQG [AGXT_Y194_M195R],0.4
12,GSCQEYTGAPY [NAXD_Y85_G81S],0.805
13,RHNEIYEIKVD [LGR5_Y387],1.86
14,KLYRVYCDMNT [FGB_Y269_P265L],0.838
15,KASRKYFAMKI [AKT3_Y173_G171R_YF],0.569
16,DPLLTYRFPPK [LMNA_Y481],0.515

# Biological target: MERTK (UniProt Q12866)
# Assay: as above
# Sequence of MERTK (Q12866 whole entry, looked up): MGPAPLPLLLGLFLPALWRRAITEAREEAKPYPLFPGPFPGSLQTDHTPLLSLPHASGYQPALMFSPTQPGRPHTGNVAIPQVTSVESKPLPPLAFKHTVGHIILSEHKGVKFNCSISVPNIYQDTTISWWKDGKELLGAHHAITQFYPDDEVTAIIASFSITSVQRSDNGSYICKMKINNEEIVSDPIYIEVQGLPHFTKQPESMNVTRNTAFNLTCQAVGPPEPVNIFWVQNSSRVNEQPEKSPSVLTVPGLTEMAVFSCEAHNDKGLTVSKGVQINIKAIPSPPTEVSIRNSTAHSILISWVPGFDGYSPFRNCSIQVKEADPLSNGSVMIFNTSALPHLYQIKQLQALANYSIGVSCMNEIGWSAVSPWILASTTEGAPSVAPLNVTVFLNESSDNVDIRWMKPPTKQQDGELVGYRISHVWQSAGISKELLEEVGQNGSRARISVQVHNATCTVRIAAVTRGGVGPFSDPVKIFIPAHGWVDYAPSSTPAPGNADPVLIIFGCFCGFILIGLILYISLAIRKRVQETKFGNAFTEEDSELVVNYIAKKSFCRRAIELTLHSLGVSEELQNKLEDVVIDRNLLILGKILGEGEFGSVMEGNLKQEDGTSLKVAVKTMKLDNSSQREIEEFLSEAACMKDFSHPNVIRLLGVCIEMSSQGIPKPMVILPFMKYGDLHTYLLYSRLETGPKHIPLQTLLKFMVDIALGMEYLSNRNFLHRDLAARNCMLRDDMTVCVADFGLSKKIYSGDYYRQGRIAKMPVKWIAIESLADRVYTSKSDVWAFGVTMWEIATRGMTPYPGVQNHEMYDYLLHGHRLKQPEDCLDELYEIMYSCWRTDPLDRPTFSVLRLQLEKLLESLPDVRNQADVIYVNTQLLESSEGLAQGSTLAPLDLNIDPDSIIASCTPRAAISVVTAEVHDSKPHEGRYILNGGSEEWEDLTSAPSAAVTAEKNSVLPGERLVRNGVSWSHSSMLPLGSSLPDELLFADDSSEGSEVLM
row,Sequence,phosphorylation enrichment
1,GITVAYTIPKK [UBA5_Y372],0.528
2,PIDLFYLMDLS [ITGB2_Y131_YF],0.728
3,GKAFIYASHIV [ZNF573_Y229],0.408
4,KRYRIYHLATS [BRCA2_Y3009],0.322
5,ICTVDYLLRLQ [RYR1_Y3921],0.428
6,VGSIEYLKREW [KCNMA1_Y885],0.38
7,EFKKKYSDADI [CKAP5_Y1860_YF],0.472
8,GVLKEYVVKVL [CPS1_Y529_G530V],0.32
9,ELPEKYSQNIY [PKP2_Y626],0.384
10,RSRQIYDAYIM [GRK3_Y109],8.17
11,KAIMIYVSSFY [ACTN4_Y260_T259I],0.347
12,DLDTEYGSGFP [RNASEH2A_Y206_D205E_YF],0.469
13,GGFTCCCDGKK [PROS1_Y266_Y266C_YF],0.468
14,ISGGGYRARPA [FGB_Y71],0.333
15,RIILLYIFLKN [STXBP1_Y411],0.581
16,PGRRFYVVACD [RNASE3_Y134],1.22
17,KAIDMYLMGCF [GABRB2_Y308],0.425

row,Sequence,phosphorylation enrichment
1,RIGRKCKKVRF [F8_Y442_Y442C],0.549
2,FDCKWYIPLTD [BCR_Y756_YF],0.625
3,NDLMEYPKQHG [ASS1_Y163_A164P],0.45
4,LNAGAYSKVVQ [PPT1_Y172],0.627
5,ADARMCGVLPW [PLP1_Y207_Y207C],0.436
6,RSRSSYTHGLN [MYCT1_Y116],0.883
7,DAVAVCHGKIS [SH2D1A_Y7_Y7C],0.403
8,PFTRNYYVQAV [CYBA_Y87_R90Q],1.25
9,LFSGDYFRIQG [DDR2_Y740_YF],2.08
10,SVKVYYKKCWS [EPHA7_Y202],0.379
11,GGTPLYRDRQG [AGXT_Y194_M195R],0.364
12,GSCQEYTGAPY [NAXD_Y85_G81S],0.432
13,RHNEIYEIKVD [LGR5_Y387],0.616
14,KLYRVYCDMNT [FGB_Y269_P265L],0.466
15,KASRKYFAMKI [AKT3_Y173_G171R_YF],0.811
16,DPLLTYRFPPK [LMNA_Y481],0.434

# Test system: c-Abl (mouse)
# Assay: as above
row,Sequence,phosphorylation enrichment
1,GITVAYTIPKK [UBA5_Y372],0.702
2,PIDLFYLMDLS [ITGB2_Y131_YF],0.98
3,GKAFIYASHIV [ZNF573_Y229],0.996
4,KRYRIYHLATS [BRCA2_Y3009],0.402
5,ICTVDYLLRLQ [RYR1_Y3921],0.966
6,VGSIEYLKREW [KCNMA1_Y885],0.488
7,EFKKKYSDADI [CKAP5_Y1860_YF],0.464
8,GVLKEYVVKVL [CPS1_Y529_G530V],0.67
9,ELPEKYSQNIY [PKP2_Y626],0.658
10,RSRQIYDAYIM [GRK3_Y109],6.11
11,KAIMIYVSSFY [ACTN4_Y260_T259I],0.972
12,DLDTEYGSGFP [RNASEH2A_Y206_D205E_YF],1.27
13,GGFTCCCDGKK [PROS1_Y266_Y266C_YF],0.977
14,ISGGGYRARPA [FGB_Y71],0.515
15,RIILLYIFLKN [STXBP1_Y411],0.827
16,PGRRFYVVACD [RNASE3_Y134],1.24
17,KAIDMYLMGCF [GABRB2_Y308],1.06

row,Sequence,phosphorylation enrichment
1,RIGRKCKKVRF [F8_Y442_Y442C],0.524
2,FDCKWYIPLTD [BCR_Y756_YF],0.826
3,NDLMEYPKQHG [ASS1_Y163_A164P],0.697
4,LNAGAYSKVVQ [PPT1_Y172],0.994
5,ADARMCGVLPW [PLP1_Y207_Y207C],0.746
6,RSRSSYTHGLN [MYCT1_Y116],0.981
7,DAVAVCHGKIS [SH2D1A_Y7_Y7C],0.59
8,PFTRNYYVQAV [CYBA_Y87_R90Q],1.12
9,LFSGDYFRIQG [DDR2_Y740_YF],1.67
10,SVKVYYKKCWS [EPHA7_Y202],1.2
11,GGTPLYRDRQG [AGXT_Y194_M195R],0.5
12,GSCQEYTGAPY [NAXD_Y85_G81S],0.668
13,RHNEIYEIKVD [LGR5_Y387],0.768
14,KLYRVYCDMNT [FGB_Y269_P265L],0.696
15,KASRKYFAMKI [AKT3_Y173_G171R_YF],0.624
16,DPLLTYRFPPK [LMNA_Y481],0.578
